Reference: US20120316071A1 (published 2012)
Values belong to the binder of their own block, whether it stands above or below them.

Columns and labels:
[1] = target: T1, rHuman Notch-1/Fc Chimera, CF (R&D Systems Cat#3647-TK) (human, UniProt P46531 19-526); assay: MSD multispot ECL, antigen spotted on plate; Fab 0.03188 uM; blank spot 536
T1 construct: Bought recombinant protein; Fc part of the bought chimera not given

[2] = target: T2, rHuman HGF R/c-MET/Fc Chimera, CF (R&D Systems Cat#358-MT/CF) (human, UniProt P08581 25-932); assay: as above
T2 construct: Bought recombinant protein; also called HGF R/Fc; hepatocyte growth factor receptor; Fc part of the bought chimera not given

[3] = target: T3, rHuman ErbB2/Fc Chimera, CF (R&D Systems Cat#1129-ER) (human, UniProt P04626 23-652); assay: Multispot ECL (MSD) titration; antigen spotted on plate; Fab 1570 nM; blank spot 866
T3 construct: Bought Fc chimera; also called human epidermal growth factor 2 receptor; Fc part of the bought chimera not given

[4] = target: T4, Recombinant Human DLL4 (R&D Systems Cat#1506-D4/CF) (human, UniProt Q9NR61 27-524); assay: Multispot ECL (MSD) titration; antigen spotted on plate; Fab 58.1 nM; blank spot 225
T4 construct: Bought recombinant protein; also called delta-like protein 4; rHuman DLL4

[5] = target: T5, rHuman IGF-1 sR (IGF-1 sR), CF (R&D Systems Cat#391-GR) (human, UniProt P08069 31-932); assay: as above
T5 construct: Bought soluble receptor; also called insulin-like growth factor-1 soluble receptor

[6] = target: T6, rHuman CD44/Fc Chimera, CF (R&D Systems Cat#3660-CD) (human, UniProt P16070 21-220); assay: as above
T6 construct: Bought Fc chimera; Fc part of the bought chimera not given

[7] = target: T7, rHuman P-Cadherin/Fc Chimera, CF (R&D Systems Cat#861-PC) (human, UniProt P22223 108-654); assay: as above
T7 construct: Bought Fc chimera; Fc part of the bought chimera not given

[8] = target: T8, rHuman Notch-1/Fc Chimera, CF (R&D Systems Cat#3647-TK) (human, UniProt P46531 19-526); assay: as above
T8 construct: Bought Fc chimera; Fc part of the bought chimera not given

[9] = target: T9, rHuman Erythropoietin R/Fc Chimera, CF (R&D Systems Cat#963-ER) (human, UniProt P19235 25-250); assay: as above
T9 construct: Bought Fc chimera; also called EPO R/Fc; EPO R; Fc part of the bought chimera not given
T9 sequence (looked up): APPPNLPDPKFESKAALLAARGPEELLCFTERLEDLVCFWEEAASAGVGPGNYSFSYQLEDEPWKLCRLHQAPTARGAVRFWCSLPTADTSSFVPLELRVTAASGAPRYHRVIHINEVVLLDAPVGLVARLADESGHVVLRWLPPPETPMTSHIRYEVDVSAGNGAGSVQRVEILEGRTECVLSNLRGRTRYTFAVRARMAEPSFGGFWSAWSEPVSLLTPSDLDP

[10] = target: T3, rHuman ErbB2/Fc Chimera, CF (R&D …); assay: as above
[11] = target: T10, rHuman Erythropoietin R/Fc Chimera, CF (R&D Systems Cat#963-ER) (human, UniProt P19235 25-250); assay: ECL multispot (MSD) assay, spotted antigen; Fab 2.00 (head prints uM)
T10 construct: Bought recombinant protein; also called EPO R; EPO R/Fc; Fc part of the bought chimera not given
T10 sequence (looked up): T9 sequence (looked up)

[12] = target: T11, rHuman ErbB2/Fc Chimera, CF (R&D Systems Cat#1129-ER) (human, UniProt P04626 23-652); assay: as above
T11 construct: Bought recombinant protein; Fc part of the bought chimera not given

[13] = target: T12, Recombinant Human DLL4 (R&D Systems Cat#1506-D4/CF) (human, UniProt Q9NR61 27-524); assay: as above
T12 construct: Bought recombinant protein; also called delta-like protein 4

[14] = target: T13, rHuman EGF R/Fc Chimera, CF (R&D Systems Cat#344-ER) (human, UniProt P00533 25-645); assay: as above
T13 construct: Bought recombinant protein; Fc part of the bought chimera not given

[15] = target: T14, rHuman P-Cadherin/Fc Chimera, CF (R&D Systems Cat#861-PC) (human, UniProt P22223 108-654); assay: as above
T14 construct: Bought recombinant protein; Fc part of the bought chimera not given

[16] = target: T15, rHuman IGF-1 sR, CF (R&D Systems Cat#391-GR) (human, UniProt P08069 31-932); assay: as above
T15 construct: Bought soluble receptor; The column head prints only 'IGF-1'; also called insulin-like growth factor-1 soluble receptor

[17] = target: T16, rHuman HGF R/c-MET/Fc Chimera, CF (R&D Systems Cat#358-MT/CF) (human, UniProt P08581 25-932); assay: as above
T16 construct: Bought recombinant protein; also called HGF R/Fc; Fc part of the bought chimera not given

[18] = target: T17, rHuman Notch-1/Fc Chimera, CF (R&D Systems Cat#3647-TK) (human, UniProt P46531 19-526); assay: as above
T17 construct: Bought recombinant protein; Fc part of the bought chimera not given

[19] = target: T18, rHuman CD44/Fc Chimera, CF (R&D Systems Cat#3660-CD) (human, UniProt P16070 21-220); assay: as above
T18 construct: Bought recombinant protein; Fc part of the bought chimera not given

ECL signal [1]: 849 | ECL signal [2]: 693
B1: Fab VH4-34_IGHD7-27*01_IGHJ4*01 & L5_IGKJ1*01 (Fab, V domains shown)
VH: QVQLQQWGAGLLKPSETLSLTCAVYGGSFSGYYWSWIRQPPGKGLEWIGEINHSGSTNYNPSLKSRVTISVDTSKNQFSLKLSSVTAADTAVYYCARANWGDYFDYWGQGTLVTVSS
VL: DIQMTQSPSSVSASVGDRVTITCRASQGISSWLAWYQQKPGKAPKLLIYAASSLQSGVPSRFSGSGSGTDFTLTISSLQPEDFATYYCQQANSFPPWTFGQGTKVEIKR
notes: Germline library Fab expressed in E. coli; VH was cloned into Plasmid A, which adds CH1 with His6 and Flag tags

ECL signal [3]: 1260
B2: Fab VH1-46_IGHD3-10*01_IGHJ4*01 & O1_IGKJ1*01 (Fab, V domains shown)
VH: QVQLVQSGAEVKKPGASVKVSCKASGYTFTSYYMHWVRQAPGQGLEWMGIINPSGGSTSYAQKFQGRVTMTRDTSTSTVYMELSSLRSEDTAVYYCAREYYYGSGSYYNDYFDYWGQGTLVTVSS
VL: DIVMTQTPLSLPVTPGEPASISCRSSQSLLDSDDGNTYLDWYLQKPGQSPQLLIYTLSYRASGVPDRFSGSGSGTDFTLKISRVEAEDVGVYYCMQRIEFPSWTFGQGTKVEIKR
notes: Germline library Fab expressed in E. coli; VH was cloned into Plasmid A (CH1 constant region, His6 and Flag tags); The kappa VL was cloned into Plasmid C (kappa CL)

ECL signal [4]: 1880 | ECL signal [5]: 343 | ECL signal [6]: 375 | ECL signal [7]: 478 | ECL signal [8]: 388 | ECL signal [9]: 829 | ECL signal [10]: 322
B3: Fab VH1-46_IGHD6-13*01_IGHJ4*01 & O1_IGKJ1*01 (Fab, V domains shown)
VH: QVQLVQSGAEVKKPGASVKVSCKASGYTFTSYYMHWVRQAPGQGLEWMGIINPSGGSTSYAQKFQGRVTMTRDTSTSTVYMELSSLRSEDTAVYYCAREGYSSSWYDYFDYWGQGTLVTVSS
VL: B2 VL
notes: as for B2

ECL signal/noise ratio [11]: 4.1 | ECL signal/noise ratio [12]: 3.2 | ECL signal/noise ratio [13]: 72.7 | ECL signal/noise ratio [14]: 3.8 | ECL signal/noise ratio [15]: 4.3 | ECL signal/noise ratio [16]: 3.7 | ECL signal/noise ratio [17]: 6 | ECL signal/noise ratio [18]: 1.9 | ECL signal/noise ratio [19]: 3.5
B4: Fab VH5-51_IGHD5-18*01>3_IGHJ4*01 G100K/G104T & V3-4_IGLJ1*01 (Fab, V domains shown)
VH: EVQLVQSGAEVKKPGESLKISCKGSGYSFTSYWIGWVRQMPGKGLEWMGIIYPGDSDTRYSPSFQGQVTISADKSISTAYLQWSSLKASDTAMYYCARRKYSYTYDYFDYWGQGTLVTVSS
VL: QTVVTQEPSFSVSPGGTVTLTCGLSSGSVSTSYYPSWYQQTPGQAPRTLIYSTNTRSSGVPDRFSGSILGNKAALTITGAQADDESDYYCVLYMGSGISYVFGTGTKVTVL
notes: Tested as a Fab; The constant parts are the same as for the parent Fab (CH1 with His6/Flag tags, lambda CL); also called KT double mutant; H:KT
